Earlier results in paper PMC3089658.

Biological target: CD25 (Homo sapiens) (UniProt P01589)
Sequence of UniProt P01589 (P01589 22-240): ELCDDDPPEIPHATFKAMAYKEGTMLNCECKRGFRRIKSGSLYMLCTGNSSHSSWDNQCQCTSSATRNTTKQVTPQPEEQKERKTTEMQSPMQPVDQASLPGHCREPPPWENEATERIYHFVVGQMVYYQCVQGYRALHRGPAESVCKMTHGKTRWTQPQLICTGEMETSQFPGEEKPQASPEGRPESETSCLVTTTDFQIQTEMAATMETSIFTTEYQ

## IL-2 (from UniProt P60568)
  Kd: 10 nM
